Experimental data reported in US20260085129A1 (ECO ANIMAL HEALTH, published 2026).

Tests used:
[1] = biological target: T1, pCD163-SRCR1-9-huFc (porcine, UniProt Q2VL90 51-1028); experiment: Biacore 3000 SPR, antigen amine-coupled on CM5 chip, pH 7.4
T1 construct: Limits 51-1028 are those the description gives for CD163-SRCR1-9; also called porcine CD163 SRCR1 to SRCR9 (no PST2) with human Fc; soluble CD163; not shown: human Fc (huFc)
T1 sequence: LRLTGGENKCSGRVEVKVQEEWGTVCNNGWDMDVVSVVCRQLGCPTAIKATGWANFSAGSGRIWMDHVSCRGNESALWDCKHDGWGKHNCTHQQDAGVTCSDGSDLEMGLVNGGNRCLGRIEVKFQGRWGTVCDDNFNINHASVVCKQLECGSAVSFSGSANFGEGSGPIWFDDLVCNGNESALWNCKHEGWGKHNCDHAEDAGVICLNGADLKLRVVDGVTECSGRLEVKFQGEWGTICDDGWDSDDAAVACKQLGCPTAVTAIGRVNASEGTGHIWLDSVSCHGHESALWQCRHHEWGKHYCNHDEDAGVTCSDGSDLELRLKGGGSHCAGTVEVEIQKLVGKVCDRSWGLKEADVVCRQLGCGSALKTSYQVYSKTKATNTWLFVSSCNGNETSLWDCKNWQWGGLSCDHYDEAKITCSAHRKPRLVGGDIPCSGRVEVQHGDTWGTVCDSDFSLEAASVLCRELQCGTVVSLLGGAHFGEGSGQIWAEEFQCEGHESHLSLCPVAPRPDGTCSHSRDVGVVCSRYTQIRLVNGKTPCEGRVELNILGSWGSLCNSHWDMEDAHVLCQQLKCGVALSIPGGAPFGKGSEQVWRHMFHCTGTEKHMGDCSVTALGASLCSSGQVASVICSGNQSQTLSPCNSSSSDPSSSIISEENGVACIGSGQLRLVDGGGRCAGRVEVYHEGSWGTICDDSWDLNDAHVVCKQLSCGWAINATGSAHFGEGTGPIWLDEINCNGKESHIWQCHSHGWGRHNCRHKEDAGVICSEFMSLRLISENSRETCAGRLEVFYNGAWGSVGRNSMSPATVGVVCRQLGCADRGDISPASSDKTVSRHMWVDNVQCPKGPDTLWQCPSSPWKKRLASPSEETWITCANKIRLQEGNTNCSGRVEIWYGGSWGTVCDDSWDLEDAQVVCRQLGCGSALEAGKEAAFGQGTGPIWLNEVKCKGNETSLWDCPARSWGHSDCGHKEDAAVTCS

[2] = biological target: T1, pCD163-SRCR1-9-huFc; experiment: P.E. binding ELISA, antigen coated at 1 ug/ml, anti-c-Myc detection
Description: (§1) For P.E. binding ELISA, MaxiSorp™ high protein-binding capacity 96 well ELISA plates, were coated with 1 μg/ml of pCD163-SRCR-FL-PST2-His or huCD6-pPST2-His, or pCD163-SRCR1-9-huFc protein, diluted in PBS, overnight at 4° C. The next day, plates were washed 3× with PBS Tween 0.05% (pH 7.4) and blocked for 1 hour at room temperature with 250 μl/well of 4% Marvel/PBS. After blocking, plates were washed 3× with PBS Tween 0.05% (pH7.4) and incubated per well with 20 μl of P.E+80 μl in 1% Marvel/PBS (pH7.4), for 1 hour at room temperature (RT) with shaking. Plates were washed 3× with PBS Tween 0.05% (pH7.4) and incubated with 100 μl of anti-c-Myc antibody (Roche; Cat. nr. 11667203001) followed by secondary antibody DAM-HRP (JIR; Cat. nr. 715-035-150) in 1% Marvel/PBS (pH7.4), for 1 hour at RT with shaking. Plates were washed 3× with PBS Tween 0.05% (pH7.4) and the substrate solution (TMB solution) was added to the plates. Reaction was stopped with H2SO4 and plates read in the plate reader at 450 nm.

[3] = biological target: T2, pCD163-SRCR-FL-PST2-His (porcine, UniProt Q2VL90 51-1044); experiment: as above
T2 construct: also called pCD163-1-PST2-His; pCD163-SRCR1-PST2; not shown: His tag
T2 sequence: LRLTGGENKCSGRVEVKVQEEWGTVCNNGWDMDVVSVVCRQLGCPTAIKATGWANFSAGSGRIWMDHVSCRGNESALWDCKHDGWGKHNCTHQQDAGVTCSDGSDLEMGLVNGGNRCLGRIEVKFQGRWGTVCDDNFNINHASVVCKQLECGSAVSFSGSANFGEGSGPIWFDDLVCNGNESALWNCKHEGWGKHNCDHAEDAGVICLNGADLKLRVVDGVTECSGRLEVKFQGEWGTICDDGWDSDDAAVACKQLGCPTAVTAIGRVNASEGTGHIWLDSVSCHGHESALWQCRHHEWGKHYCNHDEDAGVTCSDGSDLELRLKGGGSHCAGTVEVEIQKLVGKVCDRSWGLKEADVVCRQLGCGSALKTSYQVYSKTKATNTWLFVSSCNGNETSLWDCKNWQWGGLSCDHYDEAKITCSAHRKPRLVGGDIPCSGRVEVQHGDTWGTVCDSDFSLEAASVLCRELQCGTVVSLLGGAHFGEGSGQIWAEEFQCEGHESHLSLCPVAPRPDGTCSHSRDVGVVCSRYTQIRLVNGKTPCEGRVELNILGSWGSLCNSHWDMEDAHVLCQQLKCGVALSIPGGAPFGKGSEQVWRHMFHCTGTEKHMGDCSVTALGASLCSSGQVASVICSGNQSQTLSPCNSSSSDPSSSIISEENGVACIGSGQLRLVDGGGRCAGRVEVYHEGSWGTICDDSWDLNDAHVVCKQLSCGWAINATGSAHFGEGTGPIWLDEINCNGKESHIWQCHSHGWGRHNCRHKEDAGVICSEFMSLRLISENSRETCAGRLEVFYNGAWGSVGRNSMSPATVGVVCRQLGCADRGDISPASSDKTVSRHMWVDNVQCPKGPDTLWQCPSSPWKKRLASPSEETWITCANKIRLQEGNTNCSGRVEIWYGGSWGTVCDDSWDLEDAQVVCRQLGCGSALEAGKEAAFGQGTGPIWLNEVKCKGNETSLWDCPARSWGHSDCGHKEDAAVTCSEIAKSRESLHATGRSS
Description: as §1

[4] = biological target: T3, huCD6-pPST2-His (human, UniProt P30203 18-402); experiment: as above
T3 construct: composition read from the name; not shown: His tag
Description: as §1

T3 sequence (P30203 whole entry): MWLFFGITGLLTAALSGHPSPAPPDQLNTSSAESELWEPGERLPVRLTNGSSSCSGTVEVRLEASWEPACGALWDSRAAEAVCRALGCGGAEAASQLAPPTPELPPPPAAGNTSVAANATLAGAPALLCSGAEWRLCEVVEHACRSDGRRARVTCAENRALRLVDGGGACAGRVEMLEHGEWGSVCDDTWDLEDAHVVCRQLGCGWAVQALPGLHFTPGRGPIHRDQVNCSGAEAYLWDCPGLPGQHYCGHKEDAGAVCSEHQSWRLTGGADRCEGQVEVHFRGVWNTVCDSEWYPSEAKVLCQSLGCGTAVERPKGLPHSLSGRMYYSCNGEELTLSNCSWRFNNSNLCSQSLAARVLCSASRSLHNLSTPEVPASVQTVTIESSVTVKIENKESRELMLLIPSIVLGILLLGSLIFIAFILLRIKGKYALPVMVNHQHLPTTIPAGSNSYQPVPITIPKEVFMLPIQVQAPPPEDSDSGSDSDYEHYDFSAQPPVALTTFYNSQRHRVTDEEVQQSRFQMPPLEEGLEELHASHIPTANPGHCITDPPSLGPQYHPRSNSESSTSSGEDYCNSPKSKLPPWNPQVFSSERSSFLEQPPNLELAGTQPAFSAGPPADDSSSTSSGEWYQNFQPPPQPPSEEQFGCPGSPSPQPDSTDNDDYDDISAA

B1: Clone 39-H17B11 VHH antibody (VHH)
VHH: QVQLVESGGGLVQAGGSLRLSCAASGRTFSSYAMGWFRQTPGKDREFVARIGWTGGTTIYADSVKGRFTISRDNAKNTVYLQMNSLKPEDTAVYYCAADQAGWRTAGVRNTYEYDYWGQGTQVTVSS
notes: Llama single domain antibody; also called clone 17B11; not shown: tags: c-myc tag on the soluble VHH in periplasmic extracts; FLAG and His tags on the purified VHH
binding result [1]: no binding (tested: 200 nM (highest VHH concentration))
O.D. 450 nm [2]: 0.091 O.D. 450 nm
O.D. 450 nm [3]: 0.066 O.D. 450 nm
O.D. 450 nm [4]: 0.052 O.D. 450 nm
